The record followed here is PMC2695410 (2009).

In general, Kd refers to the concentration at which binding is half-saturated.

The target of this experiment is Calmodulin (Bos taurus, UniProt P62157). The experiment can be described thus: dansyl-calmodulin fluorescence titration.

Molecule WASMLACRLWKAISRALFAEF (dansyl-calmodulin, Ca2+) [Aquaporin 6 N-terminal peptide (h6 Nter) N-terminal calmodulin binding site, 21-aa peptide] returned a Kd of 1780 nM.
Under RAYLLVGGLWTAISKALFAEF (dansyl-calmodulin, Ca2+) [Aquaporin 6 N-terminal peptide (Nter) N-terminal calmodulin binding site, 21-aa peptide] stands 790 nM.
